T1: SLEV NS1 (Saint Louis encephalitis virus NS1) (Saint Louis encephalitis virus, UniProt P09732 790-1141)
T1 sequence: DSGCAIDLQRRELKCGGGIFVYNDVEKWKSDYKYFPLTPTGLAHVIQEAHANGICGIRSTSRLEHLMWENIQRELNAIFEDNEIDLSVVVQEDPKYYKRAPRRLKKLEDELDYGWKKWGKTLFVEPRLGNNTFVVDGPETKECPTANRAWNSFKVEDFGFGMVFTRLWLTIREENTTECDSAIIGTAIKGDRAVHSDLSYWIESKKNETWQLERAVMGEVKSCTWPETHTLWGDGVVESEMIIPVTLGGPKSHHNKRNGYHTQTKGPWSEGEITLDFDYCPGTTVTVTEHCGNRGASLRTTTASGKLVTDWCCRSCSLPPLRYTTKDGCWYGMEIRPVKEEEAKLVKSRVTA

T2: recombinant NS1 wing domain (residues 38-151) (Dengue virus 2, UniProt P07564 813-926)
T2 sequence: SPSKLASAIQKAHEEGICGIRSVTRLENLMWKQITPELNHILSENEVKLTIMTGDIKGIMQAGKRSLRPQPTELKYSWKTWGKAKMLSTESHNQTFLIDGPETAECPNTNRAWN

T3: DENV1 NS1 (Dengue virus 1, UniProt P17763 776-1127)
T3 construct: also called dengue virus serotype 1 NS1
T3 chain: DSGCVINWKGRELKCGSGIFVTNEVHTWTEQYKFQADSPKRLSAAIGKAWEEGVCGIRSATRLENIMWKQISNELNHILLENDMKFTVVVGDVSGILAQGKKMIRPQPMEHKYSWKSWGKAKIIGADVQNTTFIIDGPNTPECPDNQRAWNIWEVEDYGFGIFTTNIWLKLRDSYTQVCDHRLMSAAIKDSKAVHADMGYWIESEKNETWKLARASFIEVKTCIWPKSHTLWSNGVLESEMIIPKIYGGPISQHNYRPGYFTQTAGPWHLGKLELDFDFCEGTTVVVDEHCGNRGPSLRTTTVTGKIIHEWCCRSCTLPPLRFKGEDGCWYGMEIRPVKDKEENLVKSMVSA

T4: JEV NS1 (Japanese encephalitis virus NS1) (Japanese encephalitis virus, UniProt P0DOH7 795-1146)
T4 sequence: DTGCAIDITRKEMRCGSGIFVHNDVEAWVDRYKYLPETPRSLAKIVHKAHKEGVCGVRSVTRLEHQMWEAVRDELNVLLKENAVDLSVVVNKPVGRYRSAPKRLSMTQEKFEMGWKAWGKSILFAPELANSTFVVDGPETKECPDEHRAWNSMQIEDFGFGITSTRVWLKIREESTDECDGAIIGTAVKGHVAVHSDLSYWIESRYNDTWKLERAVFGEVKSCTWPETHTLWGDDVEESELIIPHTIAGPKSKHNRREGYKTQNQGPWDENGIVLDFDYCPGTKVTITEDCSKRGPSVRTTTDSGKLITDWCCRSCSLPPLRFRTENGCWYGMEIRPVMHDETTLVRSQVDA

T5: USUV NS1 (Usutu virus NS1) (Usutu virus, UniProt Q5WPU5 794-1145)
T5 chain: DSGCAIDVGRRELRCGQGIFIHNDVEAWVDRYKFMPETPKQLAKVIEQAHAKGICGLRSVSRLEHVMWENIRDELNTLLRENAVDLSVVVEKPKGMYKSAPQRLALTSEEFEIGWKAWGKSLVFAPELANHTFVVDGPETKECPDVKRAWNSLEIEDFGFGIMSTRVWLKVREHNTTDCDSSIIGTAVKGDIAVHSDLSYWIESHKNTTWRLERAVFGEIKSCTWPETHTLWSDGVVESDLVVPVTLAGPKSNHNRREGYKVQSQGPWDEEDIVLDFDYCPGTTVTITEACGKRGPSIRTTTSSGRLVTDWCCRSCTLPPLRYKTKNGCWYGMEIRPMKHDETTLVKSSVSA

T6: DENV3 NS1 (Dengue virus 3, UniProt Q6YMS4 774-1125)
T6 sequence: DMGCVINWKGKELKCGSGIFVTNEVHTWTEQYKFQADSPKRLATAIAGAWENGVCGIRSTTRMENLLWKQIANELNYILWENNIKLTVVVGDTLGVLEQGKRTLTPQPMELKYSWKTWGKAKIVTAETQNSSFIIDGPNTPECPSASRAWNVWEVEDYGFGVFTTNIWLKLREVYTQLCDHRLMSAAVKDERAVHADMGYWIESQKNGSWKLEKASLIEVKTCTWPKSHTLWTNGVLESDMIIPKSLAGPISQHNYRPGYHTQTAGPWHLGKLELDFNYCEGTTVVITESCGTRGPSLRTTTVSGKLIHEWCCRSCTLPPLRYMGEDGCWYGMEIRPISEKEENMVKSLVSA

T7: DENV4 NS1 (Dengue virus 4, UniProt P09866 775-1126)
T7 sequence: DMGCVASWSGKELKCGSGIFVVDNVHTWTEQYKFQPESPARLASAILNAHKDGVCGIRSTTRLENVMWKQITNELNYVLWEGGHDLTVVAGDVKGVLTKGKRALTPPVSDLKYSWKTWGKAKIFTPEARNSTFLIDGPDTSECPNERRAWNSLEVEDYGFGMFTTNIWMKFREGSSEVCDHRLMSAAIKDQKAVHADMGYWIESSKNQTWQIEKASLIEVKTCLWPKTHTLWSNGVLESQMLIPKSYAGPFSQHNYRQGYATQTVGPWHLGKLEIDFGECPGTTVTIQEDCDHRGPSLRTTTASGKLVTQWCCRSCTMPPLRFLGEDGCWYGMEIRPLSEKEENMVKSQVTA

T8: WSLV NS1 (Wesselsbron virus NS1) (Wesselsbron virus, UniProt C5H431 771-1123)
T8 sequence: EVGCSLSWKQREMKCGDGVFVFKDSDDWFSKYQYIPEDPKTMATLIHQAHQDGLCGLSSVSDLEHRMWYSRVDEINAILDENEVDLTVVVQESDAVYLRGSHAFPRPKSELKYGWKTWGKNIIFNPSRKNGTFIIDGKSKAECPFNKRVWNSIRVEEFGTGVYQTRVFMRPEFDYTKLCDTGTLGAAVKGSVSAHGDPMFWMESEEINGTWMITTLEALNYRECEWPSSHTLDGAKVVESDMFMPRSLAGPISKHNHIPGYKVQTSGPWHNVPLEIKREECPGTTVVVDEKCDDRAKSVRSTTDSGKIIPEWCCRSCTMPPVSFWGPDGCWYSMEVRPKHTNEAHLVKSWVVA

B1: anti-DENV NS1 IgG2b mouse monoclonal antibody (mAb) 2B7 (antibody, V domains shown)
VH: EVQLQQSGPELVKPGASVKMSCKASGCTLTNCFMHWMKQKPGQDLEWIGYINPYNDMTKYSENFKGKATLTSDKSSSTAFMELSSLTSEDSAVYYCARGYLLRTGCFDYWGQGTTLTVSS
VL: NIVLTQSPASLAVSLGQRATISCRASESVDSYGYSFMHWYQQKPGQPPKVLIYLASNLESGVPARFSGSGSRTDFTLTIDPVEADDAATYYCQQNNENPLTFGAGTKLELKR
B2: 2B7 Fab (Fab, V domains shown)
VH: B1 VH
VL: NIVLTQSPASLAVSLGQRATISCRASESVDSYGYSFMHWYQQKPGQPPKVLIYLASNLESGVPARFSGSGSRTDFTLTIDPVEADDAATYYCQQNNENPLTFGAGTKLELK

Tests used:
[1] = target: T1, SLEV NS1 (Saint Louis encephalitis …); test: ELISA, 2B7 titrated on SLEV NS1, OD450nm
[2] = target: T2, recombinant NS1 wing domain (residues …); test: direct ELISA on plates coated with recombinant NS1 domains, OD 405 nm
DENV1 NS1 [3] = target: T3, DENV1 NS1; test: ELISA, 2B7 titrated on DENV1 NS1, OD450nm
[4] = target: T4, JEV NS1 (Japanese encephalitis virus …); test: ELISA, 2B7 titrated on JEV NS1, OD450nm
[5] = target: T5, USUV NS1 (Usutu virus NS1); test: ELISA, 2B7 titrated on USUV NS1, OD450nm
DENV3 NS1 = target: T6, DENV3 NS1; test: ELISA, 2B7 titrated on DENV3 NS1, OD450nm
DENV4 NS1 = target: T7, DENV4 NS1; test: ELISA, 2B7 titrated on DENV4 NS1, OD450nm
[6] = target: T8, WSLV NS1 (Wesselsbron virus NS1); test: ELISA, 2B7 titrated on WSLV NS1, OD450nm
DENV1 NS1 [7] = target: T3, DENV1 NS1; test: crystal structure 3.3 Å
[8] = target: T2, recombinant NS1 wing domain (residues …); test: BLI, domains on anti-His tips

| Binder | binding result [1] | binding result [2] | binding result (DENV1 NS1 [3]) | binding result [4] | binding result [5] | binding result (DENV3 NS1) | binding result (DENV4 NS1) | binding result [6] | binding result (DENV1 NS1 [7]) | binding result [8] |
| --- | --- | --- | --- | --- | --- | --- | --- | --- | --- | --- |
| B1 | binds | no binding | binds | binds | binds | binds | binds | binds |  |  |
| B2 |  |  |  |  |  |  |  |  | binds | no binding |

— patent US20240002479A1 (REGENTS OF THE UNIVERSITY OF MICHIGAN, published 2024)
